Experimental data taken from publication doi:10.1101/2025.01.04.631317.

Target: RSV post-fusion F (Flys-GCN without StrepII-tag) (Respiratory Syncytial Virus)
Assay: cryo-EM structure

Question: For “RSV post-fusion F (Flys-GCN without StrepII-tag)”, which stoichiometry N is on record?
Answer: The stoichiometry N was 3.
